Kd, koff and kon data for two substances are collected here from publication PMC4167697.

The target of test [1] is protein G B1. Briefly: BLI; parallel sensor kinetics; GB1 amine-coupled on AR2G sensors, IgG as analyte at 0.03125-0.5 µM, one sensor for each concentration; PBS with 0.05% Polysorbat 20, 25°C, 1000 rpm; global 1:1 binding model with RI-term; two measurements (#1, #2). Background: BLI is a label-free optical method that tracks binding on a fibre tip over time.
Test [2] deals with protein G B1. Briefly: BLI; kinetic titration series; GB1 amine-coupled on AR2G sensors, IgG as analyte at 0.03125-0.5 µM in sequence on one sensor; PBS with 0.05% Polysorbat 20, 25°C, 1000 rpm; 1:1 kinetic titration series model with RI-term; mean of 7 replicates.
Test [3] has as its target protein G B1. Briefly: BLI; kinetic titration series; GB1 amine-coupled on AR2G sensors, IgG as analyte at 0.03125-0.5 µM in turn on one sensor; PBS with 0.05% Polysorbat 20, 25°C, 1000 rpm; each sensor pair fitted separately, 1:1 kinetic titration series model with RI-term.
The target of test [4] is protein G B1. The test is described as above. The source holds these as a separate data set.
The target of test [5] is protein G B1. The test is described as above. This is another data set of the same source.
For test [6], the target named is protein G B1. Briefly: BLI; parallel sensor kinetics; GB1 amine-coupled on AR2G sensors, IgG as analyte at 0.03125-0.5 µM on five sensors in parallel; PBS with 0.05% Polysorbat 20, 25°C, 1000 rpm; global 1:1 fit with RI-term.
Test [7] deals with protein G B1. Briefly: BLI; kinetic titration series; GB1 amine-coupled on AR2G sensors, IgG as analyte at 0.03125-0.5 µM in turn on one sensor; PBS with 0.05% Polysorbat 20, 25°C, 1000 rpm; each sensor pair fitted separately, 1:1 kinetic titration series model with RI-term. This is another data set of the same source.
The target in test [8] is protein G B1. Briefly: BLI; kinetic titration series, fitted without RI term (Figure S3B); GB1 on AR2G sensors, IgG as analyte.
Test [9] deals with protein G B1. The experiment in a line: BLI; kinetic titration series; GB1 amine-coupled on AR2G sensors, IgG as analyte at 0.03125-0.5 µM in turn on one sensor; PBS with 0.05% Polysorbat 20, 25°C, 1000 rpm; each sensor pair fitted separately, 1:1 kinetic titration series model with RI-term. The source holds these as a separate data set.
For test [10], the target named is protein G B1. The description is as above. The source holds these as a separate data set.
The target of test [11] is protein G B1. The experiment in a line: BLI; parallel sensor kinetics, fitted without RI term (Figure S3A); GB1 on AR2G sensors, IgG as analyte.
In test [12] the target is protein G B1. Briefly: BLI; kinetic titration series; GB1 amine-coupled on AR2G sensors, IgG as analyte at 0.03125-0.5 µM in turn on one sensor; PBS with 0.05% Polysorbat 20, 25°C, 1000 rpm; each sensor pair fitted separately, 1:1 kinetic titration series model with RI-term. The source holds these as a separate data set.

Several values for one entry are separate records, joined by “and”; a condition that tells them apart may be missing. Identical values can stand only once.

Take rabbit immunoglobulin G (antibody): the Kd with protein G B1 [1] was 156 nM and 253 nM; in the test with protein G B1 [2], 159 nM.
As for “rabbit IgG (ID: ABIN376828; Antibodies-Online) (antibody)”, the Kd in the test with protein G B1 [3] is 166 nM; with protein G B1 [4], 164 nM; in the test with protein G B1 [5], 50.4 nM; with protein G B1 [7] it was 266 nM; with protein G B1 [8], 107 nM; with protein G B1 [9] it was 254 nM. In addition, the values for the Kd with protein G B1 [10], in the test with protein G B1 [11] and with protein G B1 [12] were 87.7 nM, 186 nM and 124 nM, respectively. For the same substance, the koff with protein G B1 [3] amounted to 0.00476 s⁻¹; in the test with protein G B1 [4] it was 0.00485 s⁻¹; in the test with protein G B1 [5], 0.0016 s⁻¹; in the test with protein G B1 [6] it was 0.00702 s⁻¹; with protein G B1 [7] it was 0.00606 s⁻¹; with protein G B1 [8], 0.00185 s⁻¹. Also, the koff with protein G B1 [9] amounted to 0.00467 s⁻¹; in the test with protein G B1 [10] it was 0.00601 s⁻¹; in the test with protein G B1 [11], 0.00317 s⁻¹; in the test with protein G B1 [12], 0.00551 s⁻¹. Moreover, the on-rate constant (kon) with protein G B1 [3] stood at 28700 M⁻¹ s⁻¹; with protein G B1 [4], 29700 M⁻¹ s⁻¹; with protein G B1 [5], 31800 M⁻¹ s⁻¹; with protein G B1 [6], 45100 M⁻¹ s⁻¹; in the test with protein G B1 [7] it was 22800 M⁻¹ s⁻¹; with protein G B1 [8] it was 17300 M⁻¹ s⁻¹. The kon with protein G B1 [9] stood at 18400 M⁻¹ s⁻¹; with protein G B1 [10], 68500 M⁻¹ s⁻¹; with protein G B1 [11] it was 17000 M⁻¹ s⁻¹; with protein G B1 [12], 44300 M⁻¹ s⁻¹.

What is called Kd is the constant that tells how readily two partners part at equilibrium. Higher therefore signals lower affinity. Usually koff stands for a measure of how fast the partners let go of each other. Low values mean slow dissociation, high ones fast dissociation. What is called kon is a measure of how fast the partners come together. Read a high kon as faster complex formation.
